Target: the molecule itself
Assay: non-reducing and reducing SDS-PAGE after surface biotinylation and anti-HA immunoprecipitation; cells surface biotinylated, lysed in 1% NP40 ± 10 mM iodoacetamide, HA-tagged protein precipitated with anti-HA resin, blot with streptavidin-HRP; with or without BTN3A1, with or without Zol

B1: HA-tagged BTN2A1 (surface biotinylation experiment) (natural protein, human, UniProt Q7KYR7 29-527, looked up)
chain: QFIVVGPTDPILATVGENTTLRCHLSPEKNAEDMEVRWFRSQFSPAVFVYKGGRERTEEQMEEYRGRTTFVSKDISRGSVALVIHNITAQENGTYRCYFQEGRSYDEAILHLVVAGLGSKPLISMRGHEDGGIRLECISRGWYPKPLTVWRDPYGGVAPALKEVSMPDADGLFMVTTAVIIRDKSVRNMSCSINNTLLGQKKESVIFIPESFMPSVSPCAVALPIIVVILMIPIAVCIYWINKLQKEKKILSGEKEFERETREIALKELEKERVQKEEELQVKEKLQEELRWRRTFLHAVDVVLDPDTAHPDLFLSEDRRSVRRCPFRHLGESVPDNPERFDSQPCVLGRESFASGKHYWEVEVENVIEWTVGVCRDSVERKGEVLLIPQNGFWTLEMHKGQYRAVSSPDRILPLKESLCRVGVFLDYEAGDVSFYNMRDRSHIYTCPRSAFSVPVRPFFRLGCEDSPIFICPALTGANGVTVPEEGLTLHRVGTHQSL
modifications: surface lysines biotinylated with EZ-Link Sulfo NHS-LC-biotin
notes: Butyrophilin-2A1 (BTN2A1), human; also called CHO-cell expressed BTN2A1; cell surface BTN2A1
  stoichiometry N: 2

Reference: article PMC7083227 (Immunity, 2020)
